First the molecules themselves.
B1: Protein FAM9B (Homo sapiens), Q8IZU0 (parent)
chain: MAAWGKKHAGKDPVRDECEERNRFTETREEDVTDEHGEREPFAETDEHTGANTKKPEDTAEDLTAKRKRMKMDKTCSKTKNKSKHALRKKQLKRQKRDYIHSLKLLNVLEEYITDEQKEEEEEEGEEEELIRIFQEQQKKWQQYRSVRRERLKEMKLLRDQFVKALEDFEDLCDRVFSDEDSELDN
partner: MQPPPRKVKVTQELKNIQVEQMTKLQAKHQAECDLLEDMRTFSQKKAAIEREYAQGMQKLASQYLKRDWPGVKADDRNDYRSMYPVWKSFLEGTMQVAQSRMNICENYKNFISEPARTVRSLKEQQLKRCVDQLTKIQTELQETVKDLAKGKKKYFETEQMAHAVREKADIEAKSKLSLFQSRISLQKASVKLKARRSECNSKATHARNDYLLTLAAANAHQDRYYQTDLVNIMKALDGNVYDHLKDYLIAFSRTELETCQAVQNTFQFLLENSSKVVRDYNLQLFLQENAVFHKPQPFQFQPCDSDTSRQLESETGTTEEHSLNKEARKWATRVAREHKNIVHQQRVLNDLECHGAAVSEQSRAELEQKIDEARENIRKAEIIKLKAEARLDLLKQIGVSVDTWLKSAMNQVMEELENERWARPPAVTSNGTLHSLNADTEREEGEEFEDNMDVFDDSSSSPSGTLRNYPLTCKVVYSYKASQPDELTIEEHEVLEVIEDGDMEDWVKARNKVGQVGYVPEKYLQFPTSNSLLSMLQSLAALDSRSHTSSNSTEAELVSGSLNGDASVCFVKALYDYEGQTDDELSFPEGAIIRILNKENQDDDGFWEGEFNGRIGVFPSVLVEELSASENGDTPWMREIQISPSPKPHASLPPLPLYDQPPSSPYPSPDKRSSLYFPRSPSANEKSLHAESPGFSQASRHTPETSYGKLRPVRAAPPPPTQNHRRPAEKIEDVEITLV
B2: NIF3-like protein 1 (Homo sapiens), Q9GZT8 (parent)
chain: MLSSCVRPVPTTVRFVDSLICNSSRSFMDLKALLSSLNDFASLSFAESWDNVGLLVEPSPPHTVNTLFLTNDLTEEVMEEVLQKKADLILSYHPPIFRPMKRITWNTWKERLVIRALENRVGIYSPHTAYDAAPQGVNNWLAKGLGACTSRPIHPSKAPNYPTEGNHRVEFNVNYTQDLDKVMSAVKGIDGVSVTSFSARTGNEEQTRINLNCTQKALMQVVDFLSRNKQLYQKTEILSLEKPLLLHTGMGRLCTLDESVSLATMIDRIKRHLKLSHIRLALGVGRTLESQVKVVALCAGSGSSVLQGVEADLYLTGEMSHHDTLDAASQGINVILCEHSNTERGFLSDLRDMLDSHLENKINIILSETDRDPLQVV
partner: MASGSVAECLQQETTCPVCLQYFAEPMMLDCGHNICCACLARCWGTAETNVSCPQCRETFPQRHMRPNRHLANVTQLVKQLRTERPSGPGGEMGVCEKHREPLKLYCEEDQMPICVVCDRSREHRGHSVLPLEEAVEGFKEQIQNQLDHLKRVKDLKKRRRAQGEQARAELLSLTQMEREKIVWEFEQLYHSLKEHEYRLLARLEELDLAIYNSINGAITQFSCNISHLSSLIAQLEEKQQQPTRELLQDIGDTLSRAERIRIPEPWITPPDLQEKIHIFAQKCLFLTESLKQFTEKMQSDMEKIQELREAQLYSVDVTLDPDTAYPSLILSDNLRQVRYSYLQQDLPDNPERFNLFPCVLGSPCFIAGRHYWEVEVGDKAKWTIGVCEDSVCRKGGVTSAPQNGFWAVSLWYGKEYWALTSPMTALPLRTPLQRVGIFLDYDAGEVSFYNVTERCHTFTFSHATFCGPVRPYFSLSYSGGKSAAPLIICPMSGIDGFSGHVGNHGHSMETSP
B3: G1/S-specific cyclin-D3 (Homo sapiens), P30281 (parent)
chain: MELLCCEGTRHAPRAGPDPRLLGDQRVLQSLLRLEERYVPRASYFQCVQREIKPHMRKMLAYWMLEVCEEQRCEEEVFPLAMNYLDRYLSCVPTRKAQLQLLGAVCMLLASKLRETTPLTIEKLCIYTDHAVSPRQLRDWEVLVLGKLKWDLAAVIAHDFLAFILHRLSLPRDRQALVKKHAQTFLALCATDYTFAMYPPSMIATGSIGAAVQGLGACSMSGDELTELLAGITGTEVDCLRACQEQIEAALRESLREASQTSSSPAPKAPRGSSSQGPSQTSTPTDVTAIHL

Variants of B1 are the subject of the first experiment. The conditions noted are these: with fcsd2_human FCHSD2, O94868.
As for R23H, the “effect of a mutation on the interaction” value is given as “with no effect”.

The next experiment covers variants of B2. The conditions noted are these: with tri27_human TRIM27, P14373.
Consider MLSSCVRPVPTTVRFVDSLICNSSRSFMDLKALLSSLNDFASLSFAESWDNVGLLVEPSPPHTVNTLFLTNDLTEEVMEEVLQKKADLILSYHPPIFRPMKRITWNTWKERLVIRALENRVGIYSPHTAYDAAPQGVNNWLAKGLGACTSRPIHPSKAPNYPTEGNHRVEFNVNYTQDLDKVMSAVKGIDGVSVTSFSARTGNEEQTRINLNCTQKALMQVVDFLSRNKQLYQKTEILSLEKPLLLHTGMGRLCTLDESVSLATMIDRIKRHLKLSHIRLALGVGRTLESQVKVVALCAGSGSSVLQGVEADLYLTGEMSHHDILDAASQGINVILCEHSNTERGFLSDLRDMLDSHLENKINIILSETDRDPLQVV [T324I], for which the “effect of a mutation on the interaction” value is “disrupting interaction strength”.

A further experiment covers variants of B3. The conditions noted are these: with cdk4_human CDK4, P11802.
For the variant MELLCCEGTRHAPRAGPDPRLLGDQRVLQSLLRLEERYVPRASYFQCVQREIKPHMRKMLAYWMLEVCEEQRCEEEVFPLAMNYLDRYLSCVPTRKAQLQLLGAVCMLLASKLRETTPLTIEKLCIYTDHAVSPRQLRDWEVLVLGKLKWDLAAVIAHDFLAFILHRLSLPRDRQALVKKHAQTFLALCATDYTFAMYPPSMIATGSIGAAVQGLGACSMSGDELTELLAGITGTEVDCLRACQEQIEAALRESLREASQTSSSPVPKAPRGSSSQGPSQTSTPTDVTAIHL [A266V], the “effect of a mutation on the interaction” value is recorded as “with no effect”.

In the case of MELLCCEGTRHAPRAGPDPRLLGDQRVLQSLLRLEERYVPRASYFQCVQREIKPHMRKMLAYWMLEVCEEQRCEEEVFPLAMNYLDRYLSCVPTRKAQLQLLGAVCMLLASKLRETTPLTIEKLCIYTDHAVSSRQLRDWEVLVLGKLKWDLAAVIAHDFLAFILHRLSLPRDRQALVKKHAQTFLALCATDYTFAMYPPSMIATGSIGAAVQGLGACSMSGDELTELLAGITGTEVDCLRACQEQIEAALRESLREASQTSSSPAPKAPRGSSSQGPSQTSTPTDVTAIHL [P134S], the “effect of a mutation on the interaction” value is “with no effect”.

With MELLCCEGTRHAPRAGPDPRLLGDQRVLQSLLRLEERYVPRASYFQCVQREIKPHMRKMLAYWMLEVCEEQRCEEEVFPLAMNYLDRYLSCVPTRKAQLQLLGAVCMLLASKLRETTPLTIEKLCIYTDHAVSPRQLRDWEVLVLGKLKWDLAAVIAHDFLAFILHRLSLPRDRQALVKKHAQTFLALCATDYTFAMYPPSMIATGSIGAAVQGLGACSMSGDELTELLAGITGTEVDCLRACQEQIEAALRESLREAAQTSSSPAPKAPRGSSSQGPSQTSTPTDVTAIHL [S259A], the “effect of a mutation on the interaction” value was “with no effect”.

Another experiment covers variants of B3. Conditions: with cdk6_human CDK6, Q00534.
cdk6_human CDK6, Q00534, sequence (Q00534 whole entry): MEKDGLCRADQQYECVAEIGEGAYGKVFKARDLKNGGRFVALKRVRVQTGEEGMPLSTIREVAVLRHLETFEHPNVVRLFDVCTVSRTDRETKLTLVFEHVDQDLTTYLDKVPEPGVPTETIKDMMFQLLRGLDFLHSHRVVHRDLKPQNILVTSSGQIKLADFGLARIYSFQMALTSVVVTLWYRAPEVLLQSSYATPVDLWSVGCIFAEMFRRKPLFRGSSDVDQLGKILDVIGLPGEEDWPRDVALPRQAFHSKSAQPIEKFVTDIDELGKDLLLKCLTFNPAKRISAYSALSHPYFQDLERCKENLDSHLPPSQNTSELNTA
As to MELLCCEGTRHAPRAGPDPRLLGDQRVLQSLLRLEERYVPRASYFQCVQREIKPHMRKMLAYWMLEVCEEQRCEEEVFPLAMNYLDRYLSCVPTRKAQLQLLGAVCMLLASKLRETTPLTIEKLCIYTDHAVSPRQLRDWEVLVLGKLKWDLAAVIAHDFLAFILHRLSLPRDRQALVKKHAQTFLALCATDYTFAMYPPSMIATGSIGAAVQGLGACSMSGDELTELLAGITGTEVDCLRACQEQIEAALRESLREASQTSSSPVPKAPRGSSSQGPSQTSTPTDVTAIHL [A266V], the “effect of a mutation on the interaction” value was “with no effect”.

As to MELLCCEGTRHAPRAGPDPRLLGDQRVLQSLLRLEERYVPRASYFQCVQREIKPHMRKMLAYWMLEVCEEQRCEEEVFPLAMNYLDRYLSCVPTRKAQLQLLGAVCMLLASKLRETTPLTIEKLCIYTDHAVSSRQLRDWEVLVLGKLKWDLAAVIAHDFLAFILHRLSLPRDRQALVKKHAQTFLALCATDYTFAMYPPSMIATGSIGAAVQGLGACSMSGDELTELLAGITGTEVDCLRACQEQIEAALRESLREASQTSSSPAPKAPRGSSSQGPSQTSTPTDVTAIHL [P134S], the “effect of a mutation on the interaction” value is recorded as “with no effect”.

In another experiment the parent is B3. Conditions: with tfp11_human TFIP11, Q9UBB9.
tfp11_human TFIP11, Q9UBB9, sequence (Q9UBB9 whole entry): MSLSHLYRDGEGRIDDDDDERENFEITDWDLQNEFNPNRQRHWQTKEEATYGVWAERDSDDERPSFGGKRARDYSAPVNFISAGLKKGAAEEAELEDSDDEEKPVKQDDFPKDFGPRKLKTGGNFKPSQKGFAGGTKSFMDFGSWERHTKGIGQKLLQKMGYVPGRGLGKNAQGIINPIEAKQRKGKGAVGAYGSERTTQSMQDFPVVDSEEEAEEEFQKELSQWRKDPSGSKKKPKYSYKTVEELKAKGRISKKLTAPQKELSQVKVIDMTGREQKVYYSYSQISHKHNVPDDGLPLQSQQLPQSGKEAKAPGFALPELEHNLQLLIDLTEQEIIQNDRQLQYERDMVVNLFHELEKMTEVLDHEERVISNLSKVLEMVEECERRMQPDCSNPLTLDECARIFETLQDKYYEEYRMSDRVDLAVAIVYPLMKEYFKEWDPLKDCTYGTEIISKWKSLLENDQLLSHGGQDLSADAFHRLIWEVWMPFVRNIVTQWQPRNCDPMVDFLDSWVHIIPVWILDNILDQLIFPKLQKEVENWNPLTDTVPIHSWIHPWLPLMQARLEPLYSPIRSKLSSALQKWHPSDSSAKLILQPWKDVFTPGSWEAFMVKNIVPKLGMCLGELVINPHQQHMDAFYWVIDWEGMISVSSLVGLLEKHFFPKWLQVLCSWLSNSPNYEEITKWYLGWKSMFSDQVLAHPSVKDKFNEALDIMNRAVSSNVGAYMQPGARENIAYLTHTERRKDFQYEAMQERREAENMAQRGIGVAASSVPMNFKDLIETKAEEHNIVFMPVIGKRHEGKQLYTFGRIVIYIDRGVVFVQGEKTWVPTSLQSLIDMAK
As for MELLCCEGTRHAPRAGPDPRLLGDQRVLQSLLRLEERYVPRASYFQCVQREIKPHMRKMLAYWMLEVCEEQRCEEEVFPLAMNYLDRYLSCVPTRKAQLQLLGAVCMLLASKLRETTPLTIEKLCIYTDHAVSPRQLRDWEVLVLGKLKWDLAAVIAHDFLAFILHRLSLPRDRQALVKKHAQTFLALCATDYTFAMYPPSMIATGSIGAAVQGLGACSMSGDELTELLAGITGTEVDCLRACQEQIEAALRESLREAAQTSSSPAPKAPRGSSSQGPSQTSTPTDVTAIHL [S259A], the “effect of a mutation on the interaction” value was “with no effect”.

Values taken from IntAct's records for PubMed 31515488.
